In the supplement of paper PMC12855868:

B1: library; numbered along this chain (parent)
chain: MAAAGGARLLRAASAVLGGPAGRWLHHAGSRAGSSGLLRNRGPGGSAEASRSLSVSARARSSSEDKITVHFINRDGETLTTKGKVGDSLLDVVVENNLDIDGFGACEGTLACSTCHLIFEDHIYEKLDAITDEENDMLDLAYGLTDRSRLGCQICLTKSMDNMTVRVPETVADARQSIDVGKTS

Variants of: B1
Assay: scaled log2 fold change in cell abundance, elesclomol vs control (0 = silent mean, 1 = nonsense mean) (scaled log2 ratio); higher = higher viability under elesclomol (loss of FDX1 cuproptosis function)
Conditions: glucose 10 mM
[1] = with ABC1 FDX1 KO, elesclomol 5 nM, 14 days
[2] = with HEK293T FDX1 KO, elesclomol 40 nM, 11 days
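Further: variant abundance is its share of total variant reads in each endpoint sample, from next-generation sequencing of the integrated ORF PCR-amplified out of genomic DNA.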

Variant	scaled log2 fold change [1]	scaled log2 fold change [2]
R166Y	0.394	1.92
V94C	-0.491	0.199
D139Y	-0.145	0.0051
D139G	-0.228	-0.268
L38M	0.492	1.02
G108H	0.742	0.224
S113K	0.372	0.195
L140F	-0.344	0.78
L140Q	0.178	-1.41
G33L	-0.121	-1.21
G33R	-0.26	-0.362
R41Y	-0.195	-0.051
R41A	0.281	0.851
L138M	0.188	0.00846
L138S	0.467	0.0871
L138N	0.767	0.557
H27G	0.0381	-0.171
L53D	-0.0291	–
L53A	0.205	0.346
D132S	-0.409	1.12

Variant	scaled log2 fold change [1]	scaled log2 fold change [2]
D132A	-0.35	-0.0723
E107K	-0.532	0.255
E107M	-0.428	-0.835
E107W	0.121	-0.686
E169D	-0.464	1.13
E169C	-0.223	-0.0591
A32G	0.242	-0.0456
A32P	0.626	–
A32C	-0.309	-1.08
A32F	0.304	0.033
R11E	-0.0252	-0.275
R11C	0.0344	-0.198
E134K	1.1	1.28
N96D	0.104	0.22
N96E	0.241	-0.435
N96M	0.283	-0.778
T68V	0.247	0.769
T78Q	0.0403	-0.00407
R58F	-0.105	-0.229
R58H	0.4	-0.194

Variant	scaled log2 fold change [1]	scaled log2 fold change [2]
G36H	0.443	-1.19
G36S	0.168	-0.0207
G36D	-0.0689	0.737
S52L	0.253	-0.651
E95V	0.0731	-0.123
E95T	-0.37	–
E95S	0.146	0.071
E95Q	0.0772	-0.398
E95H	-0.106	-0.636
A28M	-0.0504	-0.198
A28C	0.232	0.15
E125D	0.426	0.469
F119I	0.0519	-0.0254
F119K	1.05	1.21
A105T	-1.22	–
S184N	0.136	0.0759
S184G	0.207	-0.25
L110G	-1.14	-0.656
A15D	0.405	0.431
